Data reported in article PMC6928932.

How the values were obtained:
[1] = biological target: human gastric mucin MUC6 (human (endogenous in gastric corpus tissue)) (UniProt Q6W4X9); assay: far-Western, overlay or dot blot; as the overlay on fractions B12/C1, but with 30 mM EDTA and no added Ca2+
[2] = biological target: mucins (PAS-positive high-molecular-mass peak of human gastric extracts, containing MUC5AC and MUC6); assay: SEC + native gel or EMSA; human gastric extracts (conventional extract, extract E1) on Superdex 75 HL, 20 mM Tris-HCl pH 7.0, 30 mM NaCl; fractions analysed by 1% AgGE and Western blot; semi-quantitative TFF2 content

Sequence of UniProt Q6W4X9 (Q6W4X9 23-2439): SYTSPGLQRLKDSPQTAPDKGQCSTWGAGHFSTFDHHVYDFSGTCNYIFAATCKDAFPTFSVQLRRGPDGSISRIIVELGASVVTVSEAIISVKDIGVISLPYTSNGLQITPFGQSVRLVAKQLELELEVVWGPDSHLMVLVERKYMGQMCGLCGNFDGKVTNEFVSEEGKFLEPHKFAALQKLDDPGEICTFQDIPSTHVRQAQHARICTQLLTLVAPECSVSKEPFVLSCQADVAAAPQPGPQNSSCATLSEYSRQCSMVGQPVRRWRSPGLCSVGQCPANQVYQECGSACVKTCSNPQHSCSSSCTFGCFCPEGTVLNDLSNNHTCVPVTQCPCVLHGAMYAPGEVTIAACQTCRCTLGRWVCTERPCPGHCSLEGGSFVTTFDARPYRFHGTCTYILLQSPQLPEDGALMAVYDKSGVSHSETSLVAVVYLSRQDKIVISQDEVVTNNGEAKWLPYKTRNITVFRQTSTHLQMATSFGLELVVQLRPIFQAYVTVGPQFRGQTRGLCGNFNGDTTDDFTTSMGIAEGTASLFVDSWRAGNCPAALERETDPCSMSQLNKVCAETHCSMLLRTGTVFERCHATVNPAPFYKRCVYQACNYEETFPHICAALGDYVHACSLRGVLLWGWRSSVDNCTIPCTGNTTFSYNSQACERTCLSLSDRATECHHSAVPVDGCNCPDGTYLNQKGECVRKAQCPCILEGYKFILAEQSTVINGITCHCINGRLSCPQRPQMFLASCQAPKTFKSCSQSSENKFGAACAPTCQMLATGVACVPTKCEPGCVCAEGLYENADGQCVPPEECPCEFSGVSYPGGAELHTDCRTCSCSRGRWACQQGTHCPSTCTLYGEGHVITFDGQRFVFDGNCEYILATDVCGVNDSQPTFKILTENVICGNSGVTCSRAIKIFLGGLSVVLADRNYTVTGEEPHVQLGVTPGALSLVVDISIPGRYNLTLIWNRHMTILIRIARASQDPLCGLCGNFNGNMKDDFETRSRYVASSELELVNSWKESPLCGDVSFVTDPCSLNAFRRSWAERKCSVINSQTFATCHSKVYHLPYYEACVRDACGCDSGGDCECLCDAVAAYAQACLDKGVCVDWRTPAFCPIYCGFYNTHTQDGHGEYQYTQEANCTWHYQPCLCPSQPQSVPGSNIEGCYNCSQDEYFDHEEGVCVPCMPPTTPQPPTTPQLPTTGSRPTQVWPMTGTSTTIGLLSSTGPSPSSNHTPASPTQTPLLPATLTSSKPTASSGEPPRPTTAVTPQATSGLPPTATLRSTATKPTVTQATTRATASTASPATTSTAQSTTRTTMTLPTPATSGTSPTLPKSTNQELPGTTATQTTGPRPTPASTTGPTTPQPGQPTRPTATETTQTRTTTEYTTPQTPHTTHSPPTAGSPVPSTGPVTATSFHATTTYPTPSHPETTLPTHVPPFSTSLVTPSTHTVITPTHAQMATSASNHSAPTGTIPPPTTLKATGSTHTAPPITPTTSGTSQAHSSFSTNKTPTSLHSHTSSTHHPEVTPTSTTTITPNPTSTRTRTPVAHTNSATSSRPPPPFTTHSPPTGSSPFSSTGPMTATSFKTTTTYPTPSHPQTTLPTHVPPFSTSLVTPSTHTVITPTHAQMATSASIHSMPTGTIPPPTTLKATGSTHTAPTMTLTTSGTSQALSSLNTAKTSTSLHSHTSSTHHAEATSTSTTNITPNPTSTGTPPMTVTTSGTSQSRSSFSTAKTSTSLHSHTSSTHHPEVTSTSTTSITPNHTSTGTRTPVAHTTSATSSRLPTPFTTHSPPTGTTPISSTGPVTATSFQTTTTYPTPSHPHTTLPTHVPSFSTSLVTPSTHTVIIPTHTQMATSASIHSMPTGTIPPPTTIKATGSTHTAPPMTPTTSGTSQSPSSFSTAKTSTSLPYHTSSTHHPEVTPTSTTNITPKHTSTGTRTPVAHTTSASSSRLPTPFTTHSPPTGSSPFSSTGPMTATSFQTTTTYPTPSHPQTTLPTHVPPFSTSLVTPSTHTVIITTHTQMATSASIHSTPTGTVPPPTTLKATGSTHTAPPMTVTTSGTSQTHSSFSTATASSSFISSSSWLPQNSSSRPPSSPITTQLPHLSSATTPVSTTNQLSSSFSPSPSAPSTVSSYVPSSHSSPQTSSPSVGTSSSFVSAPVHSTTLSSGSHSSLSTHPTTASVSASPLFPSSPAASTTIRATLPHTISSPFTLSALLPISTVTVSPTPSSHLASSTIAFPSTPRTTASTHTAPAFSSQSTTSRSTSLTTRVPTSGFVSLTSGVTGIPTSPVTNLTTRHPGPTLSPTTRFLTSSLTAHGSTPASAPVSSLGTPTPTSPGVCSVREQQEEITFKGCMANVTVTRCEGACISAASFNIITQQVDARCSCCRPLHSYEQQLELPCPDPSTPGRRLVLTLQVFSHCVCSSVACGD

relative amount of TFF2 bound with 30 mM EDTA [1] | percent of TFF2 in the high-molecular-mass form (extract E1) [2] | Molecule
10% | – | 125I-labeled recombinant human glycosylated TFF2 (from UniProt Q03403 24-129) (natural protein)
– | 86% | human gastric TFF2 (endogenous) (natural protein, mainly N-glycosylated, to a minor extent non-glycosylated) EKPSPCQCSRLSPHNRTNCGFPGITSDQCFDNGCCFDSSVTGVPWCFHPLPKQESDQCVMEVSDRRNCGYPGISPEECASRKCCFSNFIFEVPWCFFPKSVEDCHY
